The data set “co-sedimentation” deals with the molecule itself. As to the kind of experiment: co-sedimentation.
In data set [1] the target is T1, barrier-to-autointegration factor (BAF) (human, UniProt O75531 1-89).
T1 sequence (looked up): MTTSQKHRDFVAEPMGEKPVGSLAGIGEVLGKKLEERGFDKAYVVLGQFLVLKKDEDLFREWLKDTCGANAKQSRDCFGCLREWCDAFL
As to the kind of experiment: SEC.

For the next data set, the target named is T2, full-length human CHMP7 (human, UniProt Q8WUX9 1-453).
T2 sequence (looked up): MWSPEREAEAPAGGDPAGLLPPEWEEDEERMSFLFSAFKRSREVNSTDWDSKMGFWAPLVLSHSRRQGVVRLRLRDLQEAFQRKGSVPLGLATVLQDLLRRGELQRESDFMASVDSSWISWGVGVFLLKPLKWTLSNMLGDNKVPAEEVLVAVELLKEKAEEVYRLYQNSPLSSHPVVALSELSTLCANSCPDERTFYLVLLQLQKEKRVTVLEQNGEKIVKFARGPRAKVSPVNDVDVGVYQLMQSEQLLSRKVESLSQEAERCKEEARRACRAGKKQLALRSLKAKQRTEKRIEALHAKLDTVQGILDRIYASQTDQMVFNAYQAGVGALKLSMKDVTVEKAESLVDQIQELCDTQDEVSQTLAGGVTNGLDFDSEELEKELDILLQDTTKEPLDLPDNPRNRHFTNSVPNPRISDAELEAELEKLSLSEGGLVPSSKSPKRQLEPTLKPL
As to the kind of experiment: cross-linking.

The data set “negative stain EM” deals with the molecule itself. As to the kind of experiment: negative stain EM.

Changes are numbered by the printed parent chain. Names and notes keep the numbering of the source.

B1: CHMP7_(R270E + I312E) (natural protein, human, UniProt Q8WUX9 1-453, looked up)
chain: T2 sequence (looked up) with R270E, I312E
Consider B1, for which the binding result in the data set “co-sedimentation” was “binds”.

B2: CHMP7_(R270E + V339D) (natural protein, human, UniProt Q8WUX9 1-453, looked up)
chain: T2 sequence (looked up) with R270E, V339D
Regarding B2, in the data set “co-sedimentation”, the binding result is reported as “binds”.

B3: LEM2_(1-72) (domain or fragment, human, UniProt Q8NC56 1-72, looked up)
chain: MAGLSDLELRRELQALGFQPGPITDTTRDVYRNKLRRLRGEARLRDEERLREEARPRGEERLREEARLREDA
For the molecule B3, the binding result in data set [1] was “binds”.

B4: His6-SUMO-LEM2_(395-503) (domain or fragment, human, UniProt Q8NC56 395-503, looked up)
chain: ILLKYRWRKLEEEEQAMYEMVKKIIDVVQDHYVDWEQDMERYPYVGILHVRDSLIPPQSRRRMKRVWDRAVEFLASNESRIQTESHRVAGEDMLVWRWTKPSSFSDSER
On to B4, for which the binding result with full-length human CHMP7 was “binds”.

B5: CHMP7_(229-453) (domain or fragment, human, UniProt Q8WUX9 229-453, looked up)
chain: AKVSPVNDVDVGVYQLMQSEQLLSRKVESLSQEAERCKEEARRACRAGKKQLALRSLKAKQRTEKRIEALHAKLDTVQGILDRIYASQTDQMVFNAYQAGVGALKLSMKDVTVEKAESLVDQIQELCDTQDEVSQTLAGGVTNGLDFDSEELEKELDILLQDTTKEPLDLPDNPRNRHFTNSVPNPRISDAELEAELEKLSLSEGGLVPSSKSPKRQLEPTLKPL
In the case of B5, the binding result in the data set “negative stain EM” is given as “binds”.

The values are drawn from publication doi:10.1101/577460 (bioRxiv, 2019).
